According to patent publication US20160193281A1 (BLUEBERRY THERAPEUTICS, published 2016):
Where no end group is shown, it is not given here.

Key:
[1] = target: T1, MAP kinase p38α, 6-his C-myc tagged protein expressed in E. coli (human, UniProt Q16539 2-360, limits assumed); assay: cell-based or functional assay
p38β = p38β (UniProt Q15759 1-364, limits assumed); assay: cell-based or functional assay
[2] = target: T2, uniformly 15N,2H-labelled 6His-MAP kinase p38α (human, UniProt Q16539 2-360, limits assumed, uniformly 15N,2H-labelled); assay: NMR 1H-15N TROSY-HSQC titration, chemical shift changes in slow exchange
T2 construct: not shown: 6His tag

[3] = target: T1, MAP kinase p38α, 6-his C-myc tagged …; assay: biochemical kinase inhibition assay; biochemical enzyme assay, not Biacore
[4] = target: T3, MAP kinase p38α (non-phosphorylated, OH-p38α) as used in the Biacore inhibition in solution assay (human, UniProt Q16539 2-360, limits assumed); assay: Biacore 3000 inhibition in solution assay; p38α pre-incubated with peptide, free p38α captured on immobilised ureidoquinazoline compound; Biacore inhibition in solution assay
T3 construct: The text says the chip was calibrated with nonphosphorylated or phosphorylated p38α; also called MAPK14; SAPK2a

[5] = target: 6 kinases (of the selectivity panel, with slight activity); assay: cell-based or functional assay

T1 sequence (Q16539 2-360 limits assumed): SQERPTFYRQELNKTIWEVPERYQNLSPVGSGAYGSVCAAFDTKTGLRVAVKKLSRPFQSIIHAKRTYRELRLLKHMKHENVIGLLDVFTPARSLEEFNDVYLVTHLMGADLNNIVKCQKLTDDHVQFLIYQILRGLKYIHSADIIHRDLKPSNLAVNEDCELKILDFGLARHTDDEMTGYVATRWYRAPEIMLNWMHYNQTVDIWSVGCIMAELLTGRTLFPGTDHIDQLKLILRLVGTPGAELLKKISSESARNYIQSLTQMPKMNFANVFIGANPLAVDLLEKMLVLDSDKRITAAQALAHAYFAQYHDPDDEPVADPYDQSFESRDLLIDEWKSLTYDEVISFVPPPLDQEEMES
T2 sequence (Q16539 2-360 limits assumed): as above
T3 sequence (Q16539 2-360 limits assumed): as above
p38β, sequence (Q15759 whole entry): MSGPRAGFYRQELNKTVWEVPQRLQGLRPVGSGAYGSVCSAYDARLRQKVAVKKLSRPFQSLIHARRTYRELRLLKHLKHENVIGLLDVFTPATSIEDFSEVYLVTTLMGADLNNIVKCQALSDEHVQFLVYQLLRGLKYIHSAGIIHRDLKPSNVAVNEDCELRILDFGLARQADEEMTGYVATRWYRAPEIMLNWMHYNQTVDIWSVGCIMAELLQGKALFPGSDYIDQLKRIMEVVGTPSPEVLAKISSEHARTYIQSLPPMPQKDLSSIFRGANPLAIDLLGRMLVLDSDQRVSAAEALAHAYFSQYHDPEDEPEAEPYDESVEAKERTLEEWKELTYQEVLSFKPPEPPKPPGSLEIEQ

| IC50 (inhibition of MAP kinase p38α) [1] [nM] | IC50 for inhibition of the activation of MAP kinase p38α by MKK6 [1] [nM] | selectivity (kinase inhibition) compared to p38α (p38β) [fold] | Kd [2] [nM] | Ki [3] [nM] | Kd [4] [nM] | selectivity (kinase inhibition) compared to p38α [5] [fold] | Binder |
| --- | --- | --- | --- | --- | --- | --- | --- |
| 7 | 1 | 100 | < 1000 | 7 | 25 |  | Ac-HKSRALLIFQKIMWLRRQ (Synthetic peptide, all L-amino acids, peptide bonds throughout, N-acetylated; also called BB2702 peptide) [BB2702 (N-acetylated peptide HKSRALLIFQKIMWLRRQ)] |
|  |  |  |  |  |  | 500 to 1000 | Ac-HKSRALLIFQKIMWLRRQ [BB2702 (N-acetylated peptide …)] |
